Measurements taken from publication PMC9054013, “FCHO controls AP2’s initiating role in endocytosis through a PtdIns(4,5)P2-dependent switch” (Science Advances, 2022).

Tests used:
[1] = biological target: GST-TGN38 (pGEX4T2 linker TGN38); test: BLI; GST-TGN38 loaded on anti-GST biosensors; AP2 core (3.3 to 0.1 μM) or AP2 FCHO2 chimera (2.6 to 0.9 μM) in solution; physiological buffer; association 20 min, dissociation 25 min
[2] = biological target: Cμ2 (μ2 residues 160 to 435) (UniProt P84092); test: ITC; Cμ2 with FCHO2 constructs or peptides; 100 mM tris pH 7.4, 150 mM NaCl, 0.25 mM TCEP; 12°C; Nano ITC
[3] = biological target: GST-FCHO2 linker wt (residues 314 to 444) (human) (UniProt Q0JRZ9); test: BLI; GST-FCHO1 or GST-FCHO2 linker loaded on anti-GST biosensors, blocked with GST-ARRS control; AP2 core in solution (twofold dilutions, 13.5 to 0.8 and 10.0 to 0.2 μM); 25°C; 0.1% NP-40, BSA 1 mg/ml; equilibrium analysis; near-physiological conditions
[4] = biological target: GST-FCHO1 linker wt (N123C) (residues 316 to 444) (human) (UniProt O14526); test: as above
[5] = biological target: AP2 α-appendage (residues 695 to 938) (UniProt P17427); test: ITC; α-appendage or β2-appendage with C block peptides; 100 mM tris pH 7.4, 150 mM NaCl, 0.25 mM TCEP; 12°C; peptides 1 to 5 mM titrated
Sequence of AP2 α-appendage (residues 695 to 938) (P17427 695-938): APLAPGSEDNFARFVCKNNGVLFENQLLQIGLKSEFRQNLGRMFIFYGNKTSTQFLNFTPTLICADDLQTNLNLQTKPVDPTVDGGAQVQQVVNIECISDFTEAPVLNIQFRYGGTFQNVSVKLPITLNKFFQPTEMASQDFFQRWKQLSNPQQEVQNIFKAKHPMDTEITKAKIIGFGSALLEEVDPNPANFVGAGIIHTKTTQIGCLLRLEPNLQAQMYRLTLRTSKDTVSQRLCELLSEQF

Sequence of Cμ2 (μ2 residues 160 to 435) (P84092 160-435): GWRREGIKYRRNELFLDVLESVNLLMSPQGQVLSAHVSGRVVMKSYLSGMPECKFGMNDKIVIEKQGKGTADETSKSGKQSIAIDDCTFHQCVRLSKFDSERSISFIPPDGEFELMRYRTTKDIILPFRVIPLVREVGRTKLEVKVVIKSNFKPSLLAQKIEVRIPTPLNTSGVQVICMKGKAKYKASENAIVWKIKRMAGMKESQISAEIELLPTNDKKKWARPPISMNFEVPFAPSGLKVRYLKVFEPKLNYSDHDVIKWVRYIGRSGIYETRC
Sequence of GST-TGN38 (pGEX4T2 linker TGN38) (Q9UJY5 other isoform, or with tags, fused parts or gaps): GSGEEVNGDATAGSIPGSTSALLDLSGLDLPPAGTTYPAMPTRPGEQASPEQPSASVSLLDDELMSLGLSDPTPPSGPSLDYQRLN
Sequence of GST-FCHO1 linker wt (N123C) (residues 316 to 444) (human) (O14526 316-444, stated change not applied): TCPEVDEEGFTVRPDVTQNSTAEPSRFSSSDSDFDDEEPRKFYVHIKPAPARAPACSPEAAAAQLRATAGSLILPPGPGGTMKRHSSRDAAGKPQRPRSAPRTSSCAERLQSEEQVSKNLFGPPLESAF
Sequence of GST-FCHO2 linker wt (residues 314 to 444) (human) (Q0JRZ9 314-444): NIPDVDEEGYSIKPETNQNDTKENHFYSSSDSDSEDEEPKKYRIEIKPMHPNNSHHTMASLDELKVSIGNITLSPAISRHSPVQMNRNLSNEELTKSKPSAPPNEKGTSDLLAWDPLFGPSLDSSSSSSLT

Substance: AP2:μ2FCHO2-N1+N2+N3 chimeric AP2 core (from UniProt P62743 1-142; P63010 1-591; Q0JRZ9-1 314-444) (complex)
- fold tighter binding than AP2 core [1]: 3 fold

Substance: FCHO2-N1+N2 (ITC) (from UniProt Q0JRZ9-1 314-356) (domain or fragment)
- Kd [2]: 25 µM

Substance: FCHO2 N1 alone (ITC) (from UniProt Q0JRZ9-1 314-340) (domain or fragment)
- fold reduction of binding against N1+N2 [2]: 5 fold

Substance: AP2 core (recombinant) (from UniProt P63010 1-591; P84092 1-435; P62743 1-142) (complex)
- Kd [3]: 9.8 µM
- Kd [4]: 8.5 µM

Substance: FCHO1 C peptide (residues 426 to 448)
- Kd [5]: 50 µM
